Experimental data: paper PMC5113989
pKd: −log10 of the molar value. Like-named read-outs stand apart in the source and are kept apart here.

How the values were obtained:
Assay in all cases: KinExA flow fluorimetry (depletion of 5-Helix by cells)
[1] = molecular target: C34-conjugated CCR5 (gp41 HR2 peptide C34 fused to the amino terminus of CCR5) (HIV-1 (HxB2 numbering) | human (genomic DNA of the Jurkat T cell line)) (UniProt P04578)
[2] = molecular target: C34-conjugated CXCR4 (gp41 HR2 peptide C34 fused to the amino terminus of CXCR4) (HIV-1 (HxB2 numbering) | not stated) (UniProt P04578)
[3] = molecular target: C34-conjugated CCR5 (gp41 HR2 peptide C34 fused to the amino terminus of CCR5) (HIV-1 (HxB2 numbering) | human (genomic DNA of the Jurkat T cell line)) (UniProt P04578); remark: listed apart in the source
[4] = molecular target: C34-conjugated CXCR4 (gp41 HR2 peptide C34 fused to the amino terminus of CXCR4) (HIV-1 (HxB2 numbering) | not stated) (UniProt P04578); remark: listed apart in the source

## rhodamine-conjugated 5-Helix (5-Helix variant containing a C-terminal Cys residue)
[1]
  pKd: 10.89
[2]
  pKd: 11.40
[3]
  pKd: > 10.82
[4]
  pKd: > 10.82
